# In the supplement of paper PMC10567573:
# B1: CDC25B (parent)
# chain: ELKTFRLKTRSWAGERSRRELCSR
# Variants of: B1
# Assay: protein stability index of a GFP-peptide fusion (GPS, HEK-293T) (PSI 1-6); higher = more stable
# Settings: c terminus: a fixed tail appended
# 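Also: lentivirally expressed fusions sorted by FACS into six bins by GFP to DsRed ratio, PSI derived from sequencing read proportions per bin multiplied by bin number.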
row,Variant,protein stability index
1,ELKTFRLKTRSWAGERSRRELCSE [R24E],3.39
2,ELKTFRLKTRSWAGERSRRELCSC [R24C],2.9
3,ELKTFRLKTRSWAGERSRRELCSF [R24F],1.85
4,ELKTFRLKTRSWAGERSRRELCSA [R24A],2.72
5,ELKTFRLKTRSWAGERSRRELCSD [R24D],2.91
6,ELKTFRLKTRSWAGERSRREFCSR [L21F],3.12
7,ELKTFRLKTRSWAGERSRREWCSR [L21W],2.55
8,ELKTFRLKTRSWAGERSRRERCSR [L21R],3.37
9,ELKTFRLKTRSWAGERSRRECCSR [L21C],3.66
10,ELKTFRLKTRSWAGERSRREPCSR [L21P],3.99
11,ELKTFRLKTRSWAGERSRREDCSR [L21D],3.98
12,ELKTFRLKTRSWAGERSRREMCSR [L21M],3.33
13,ELKTFRLKTRSWAGERSRRENCSR [L21N],3.35
14,ELKTFRLKTRSWAGERSRREVCSR [L21V],3.71
15,ELKTFRLKTRSWAGERSRREICSR [L21I],2.81
16,ELKTFRLKTRSWAGERSRREYCSR [L21Y],3.61
17,ELKTFRLKTRSWAGERSRRETCSR [L21T],3.84
18,ELKTFRLKTRSWAGERSRREGCSR [L21G],3.75
19,ELKTFRLKTRSWAGERSRRESCSR [L21S],3.9
20,ELKTFRLKTRSWAGERSRREQCSR [L21Q],3.15
21,ELKTFRLKTRSWAGERSRREHCSR [L21H],3.31
22,ELKTFRLKTRSWAGERSRREECSR [L21E],3.6
23,ELKTFRLKTRSWAGERSRREACSR [L21A],3.91
24,ELKTFRLKTRSWAGERSRREKCSR [L21K],3.76

row,Variant,protein stability index
1,ELKTFRLKTRSWAGQRSRRELCSR [E15Q],3.06
2,ELKTFRLKTRSWAGRRSRRELCSR [E15R],3.06
3,ELKTFRLKTRSWAGGRSRRELCSR [E15G],2.68
4,ELKTFRLKTRSWAGCRSRRELCSR [E15C],2.44
5,ELKTFRLKTRSWAGTRSRRELCSR [E15T],2.98
6,ELKTFRLKTRSWAGDRSRRELCSR [E15D],3.36
7,ELKTFRLKTRSWAGWRSRRELCSR [E15W],2.4
8,ELKTFRLKTRSWAGIRSRRELCSR [E15I],2.75
9,ELKTFRLKTRSWAGPRSRRELCSR [E15P],3.2
10,ELKTFRLKTRSWAGSRSRRELCSR [E15S],2.96
11,ELKTFRLKTRSWAGMRSRRELCSR [E15M],2.67
12,ELKTFRLKTRSWAGNRSRRELCSR [E15N],2.66
13,ELKTFRLKTRSWAGVRSRRELCSR [E15V],2.51
14,ELKTFRLKTRSWAGFRSRRELCSR [E15F],2.58
15,ELKTFRLKTRSWAGHRSRRELCSR [E15H],3.02
16,ELKTFRLKTRSWAGYRSRRELCSR [E15Y],2.46
17,ELKTFRLKTRSWAGARSRRELCSR [E15A],3.04
18,ELKTFRLKTRSWAGLRSRRELCSR [E15L],2.78
19,ELKTFRLKTRSWAGKRSRRELCSR [E15K],3.3
20,ELKTFRLKTRSWAGERRRRELCSR [S17R],2.63
21,ELKTFRLKTRSWAGERDRRELCSR [S17D],3.46
22,ELKTFRLKTRSWAGERYRRELCSR [S17Y],3.27
23,ELKTFRLKTRSWAGERKRRELCSR [S17K],2.77
24,ELKTFRLKTRSWAGERCRRELCSR [S17C],2.69

row,Variant,protein stability index
1,ELKTFRLKTRSWAGERARRELCSR [S17A],3.4
2,ELKTFRLKTRSWAGERFRRELCSR [S17F],2.24
3,ELKTFRLKTRSWAGERHRRELCSR [S17H],3.21
4,ELKTFRLKTRSWAGERWRRELCSR [S17W],2.16
5,ELKTFRLKTRSWAGERMRRELCSR [S17M],2.52
6,ELKTFRLKTRSWAGERGRRELCSR [S17G],2.7
7,ELKTFRLKTRSWAGERERRELCSR [S17E],4.03
8,ELKTFRLKTRSWAGERLRRELCSR [S17L],2.87
9,ELKTFRLKTRSWAGERIRRELCSR [S17I],2.32
10,ELKTFRLKTRSWAGERNRRELCSR [S17N],2.93
11,ELKTFRLKTRSWAGERVRRELCSR [S17V],2.36
12,ELKTFRLKTRSWAGERQRRELCSR [S17Q],3.35
13,ELKTFRLKTRSWAGERTRRELCSR [S17T],3.33
14,ELKTFRLKTRSWAGERPRRELCSR [S17P],3.35
15,ELKTFRLKTRSWAGEASRRELCSR [R16A],3.64
16,ELKTFRLKTRSWAGESSRRELCSR [R16S],3.9
17,ELKTFRLKTRSWAGEWSRRELCSR [R16W],2.55
18,ELKTFRLKTRSWAGENSRRELCSR [R16N],3.34
19,ELKTFRLKTRSWAGEVSRRELCSR [R16V],1.93
20,ELKTFRLKTRSWAGEHSRRELCSR [R16H],3.46
21,ELKTFRLKTRSWAGEKSRRELCSR [R16K],2.81
22,ELKTFRLKTRSWAGELSRRELCSR [R16L],2.91
23,ELKTFRLKTRSWAGEFSRRELCSR [R16F],2.6
24,ELKTFRLKTRSWAGETSRRELCSR [R16T],3.87

row,Variant,protein stability index
1,ELKTFRLKTRSWAGEESRRELCSR [R16E],3.64
2,ELKTFRLKTRSWAGEMSRRELCSR [R16M],2.97
3,ELKTFRLKTRSWAGEPSRRELCSR [R16P],3.67
4,ELKTFRLKTRSWAGECSRRELCSR [R16C],2.97
5,ELKTFRLKTRSWAGEQSRRELCSR [R16Q],3.62
6,ELKTFRLKTRSWAGEYSRRELCSR [R16Y],3.61
7,ELKTFRLKTRSWAGEDSRRELCSR [R16D],3.83
8,ELKTFRLKTRSWAGEGSRRELCSR [R16G],3.74
9,ELKTFRLKTRSWAGEISRRELCSR [R16I],2.53
10,ELKTFRLKTRSWAGERSVRELCSR [R18V],3.6
11,ELKTFRLKTRSWAGERSHRELCSR [R18H],3.33
12,ELKTFRLKTRSWAGERSIRELCSR [R18I],3.04
13,ELKTFRLKTRSWAGERSARELCSR [R18A],3.85
14,ELKTFRLKTRSWAGERSGRELCSR [R18G],2.95
15,ELKTFRLKTRSWAGERSWRELCSR [R18W],2.84
16,ELKTFRLKTRSWAGERSLRELCSR [R18L],3.23
17,ELKTFRLKTRSWAGERSYRELCSR [R18Y],2.58
18,ELKTFRLKTRSWAGERSERELCSR [R18E],3.52
19,ELKTFRLKTRSWAGERSSRELCSR [R18S],3.85
20,ELKTFRLKTRSWAGERSFRELCSR [R18F],2.62
21,ELKTFRLKTRSWAGERSNRELCSR [R18N],3.18
22,ELKTFRLKTRSWAGERSPRELCSR [R18P],3.64
